The target in series [1] is T1, human flavin-containing monooxygenase 3 (hFMO3), wild type (Homo sapiens, UniProt P31513).
T1 construct: gene FMO3
T1 sequence (P31513 2-532): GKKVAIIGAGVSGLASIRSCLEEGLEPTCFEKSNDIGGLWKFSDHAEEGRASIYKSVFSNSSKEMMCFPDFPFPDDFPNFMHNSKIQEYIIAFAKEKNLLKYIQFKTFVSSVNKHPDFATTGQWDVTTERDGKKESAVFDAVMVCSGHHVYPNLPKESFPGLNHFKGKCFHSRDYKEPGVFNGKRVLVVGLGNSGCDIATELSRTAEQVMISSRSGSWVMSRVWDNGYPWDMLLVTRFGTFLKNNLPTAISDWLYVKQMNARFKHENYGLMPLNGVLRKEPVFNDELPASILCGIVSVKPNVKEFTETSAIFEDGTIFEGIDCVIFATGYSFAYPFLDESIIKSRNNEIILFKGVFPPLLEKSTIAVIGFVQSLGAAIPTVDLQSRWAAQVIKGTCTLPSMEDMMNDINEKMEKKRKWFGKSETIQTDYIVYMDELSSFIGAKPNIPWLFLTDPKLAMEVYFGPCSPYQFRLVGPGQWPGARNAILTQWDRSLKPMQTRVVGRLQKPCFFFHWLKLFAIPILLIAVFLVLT
Description: ITC (supported by CD and DSC thermal shifts and trypsin protection). Type of series: binding. On the technique in general: DSC measures the heat that a sample takes up or gives off during a temperature scan.

Series [2] concerns the target T2, human flavin-containing monooxygenase 3 (hFMO3), N61S variant (Homo sapiens, UniProt P31513, N61S).
T2 construct: gene FMO3
T2 sequence (P31513 2-532 N61S): T1 sequence (P31513 2-532) with N60S
Put plainly: stopped-flow anaerobic FAD reduction at […] nm, Kd from kobs vs [NADPH]. Type of series: biochemical. The note with it: read-out: Reduction / K d,NADPH /.

Series [3] addresses T1, human flavin-containing monooxygenase 3 (hFMO3), wild type. Described as above. To be noted: read-out: Reduction / K d,NADPH /. It is filed as biochemical.
Substrate in series [4]: Cn1cc[nH]c1=S
Put plainly: purified protein. To be noted: FAD, NADPH.

Substrate in series [5]: CN(C)CCCOc1nn(Cc2ccccc2)c2ccccc12
Put plainly: purified protein. The note with it: FAD, NADPH.

Substrate in series [6]: CC/C(=C(\c1ccccc1)c1ccc(OCCN(C)C)cc1)c1ccccc1
Put plainly: purified protein. The note with it: FAD, NADPH.

Substrate in series [7]: CN(C)C
Put plainly: purified protein. It is filed as biochemical, Homo sapiens. To be noted: FAD, NADPH.

Where a chain is given by its changes, count along the chain named. Names may count otherwise.

Turning to `NC(=O)c1ccc[n+]([C@@H]2O[C@H](COP(=O)(O)OP(=O)(O)OC[C@H]3O[C@@H](n4cnc5c(N)ncnc54)[C@H](OP(=O)(O)O)[C@@H]3O)[C@@H](O)[C@H]2O)c1` [NADP^+], the Kd in series [1] was determined as 3.7 µM.

In the case of `NC(=O)C1=CN([C@@H]2O[C@H](COP(=O)(O)OP(=O)(O)OC[C@H]3O[C@@H](n4cnc5c(N)ncnc54)[C@H](OP(=O)(O)O)[C@@H]3O)[C@@H](O)[C@H]2O)C=CC1` [NADPH], the figures for the Kd in series [2] and in series [3] were 51.8 µM and 0.3 µM, respectively.

B1: human flavin-containing monooxygenase 3 (hFMO3), N61S variant (Homo sapiens; N61S) (protein)
chain: T1 sequence (P31513 2-532) with N60S
What is called Km is the concentration of substrate that gives half-maximal velocity. Broadly, the kcat is the maximal rate divided by the concentration of active sites. Broadly, the kcat/Km is the turnover number divided by the Michaelis constant. Take B1: in the series “purified protein [4]”, the Km was 8652.1 ± 351.6 µM, the kcat turned out to be 0.118 s⁻¹ and the specificity constant (kcat/Km) came out at 13.3 M⁻¹ s⁻¹. Moreover, in the series “purified protein [5]”, the Km came out at 417.3 ± 74.6 µM, the kcat turned out to be 0.0333 s⁻¹ and the catalytic efficiency (kcat/Km) was found to be 83.3 M⁻¹ s⁻¹. In the series “purified protein [6]”, the Km is 14.8 ± 3.4 µM, the catalytic constant (kcat) is 0.00733 s⁻¹ and the catalytic efficiency (kcat/Km) stood at 500 M⁻¹ s⁻¹.

B2: human flavin-containing monooxygenase 3 (hFMO3), wild type (Homo sapiens) (protein)
chain: T1 sequence (P31513 2-532)
Take B2: in the series “purified protein [7]”, the Km stood at 21.7 ± 4.6 µM, the catalytic constant (kcat) amounted to 0.045 ± 0.00333 s⁻¹ and the kcat/Km came out at 2000 M⁻¹ s⁻¹. Moreover, in “purified protein [4]”, the Km amounted to 14.9 ± 2.0 µM, the kcat came out at 0.14 s⁻¹ and the catalytic efficiency (kcat/Km) was determined as 9330 M⁻¹ s⁻¹.

(Values after paper PMC5676948, “Inactivation mechanism of N61S mutant of human FMO3 towards trimethylamine” (Scientific Reports, 2017).)
